For the data set the following is noted: Sus scrofa, pH 7, 20 °C, GdnHCl, Fluorescence, PIPES 50 mM, reversible: yes.

For the substance “Phospholipase A2, major isoenzyme H70K, P00592”, for the setting “structure 1P2P”, the “ddG of mutation (higher = less stable)” value was found to be 3.21 kcal/mol, the denaturant m value stood at 0.65 kcal/mol/M, the “denaturant midpoint (higher = more stable)” value (“denaturant midpoint” for short) was found to be 5.2 M and the unfolding free energy turned out to be 3.3 kcal/mol.

As to “Phospholipase A2, major isoenzyme H70N, P00592”, where the note is “structure 1P2P”, the “ddG of mutation (higher = less stable)” value is 2.28 kcal/mol, the denaturant m value was found to be 0.84 kcal/mol/M, the “denaturant midpoint” value was 5.1 M and the unfolding free energy was 4.23 kcal/mol.

Turning to “Phospholipase A2, major isoenzyme H70Q, P00592”, under “structure 1P2P”, the “ddG of mutation (higher = less stable)” value turned out to be 1.03 kcal/mol, the denaturant m value amounted to 0.91 kcal/mol/M, the “denaturant midpoint” value was 6.1 M and the unfolding free energy turned out to be 5.48 kcal/mol.

For “Phospholipase A2, major isoenzyme wild type, P00592”, the denaturant m value came to 1 kcal/mol/M, the “denaturant midpoint” value worked out at 6.4 M and the unfolding free energy worked out at 6.51 kcal/mol.

The values are drawn from FireProtDB (doi:10.1093/protein/12.6.497).
